B1: BB0323 (residues 22–242) (domain or fragment)
chain: KTPPESRESKNAKIAQPDNKNFQLRDIKDIKNELIRERGHLFYSKEFNEAERLEEAMKQSFSKKKAIEGNEIALKVLERYKTIIRETREKKEKTNYLKENIEKYLNDAEANEAYIWIPLEIDEVNNLYFEATRKYKNYDLDNALDMYSKAFNRAQQAAKNAKEAKALKETDERMYKQLKALEAASNLPIYSNNKLIKPSPWNGRAFIKERNSHLNLLNTNK
notes: BB0323 of Borrelia burgdorferi, residues 22-242; also called BB0323 N2; BB0323^22-242
B2: BB0238 (purified recombinant, wild type) (natural protein)
chain: QGSSSYIDKQKELAIFYYEVGQRYINVGKIKKGKLFQAKALKIYPDLKKGFDIKLAVKELDARIKDDNPKVVMLEDIKLEEIPGIVHEKIEINDFTNAPKIEYIAQRERSKNQDKIIKFQFGKFARALISRNFDLFDSVIADKVNVMGQFESKNDFISTLSSASSKADADELEYLSVDDYYDLKSLKISKSNDTSFAVNVNAKKNDVTKNFPFWKERQTLIFTTEDDNNWFLSSIN
notes: BB0238 of Borrelia burgdorferi; monomer-dimer mixture in solution; also called BB0238 WT; intact BB0238

Tests used:
[1] = target: the molecule itself; test: SEC; analytical SEC of single proteins on Superdex 75 (10/300), 50 mM Tris-HCl pH 8.0, 0.15 M NaCl, 0.5 mM EDTA, 4 °C; BB0238 9-44 uM, BB0238^∆IM 10-40 uM, BB0323 (22-242) 8 uM; monomer-dimer
[2] = target: B1; test: SEC; analytical SEC of ~1:1 mixtures: 10 uM BB0238-BB0323 on Superdex 200; ~9 uM BB0238^∆IM with 8 uM BB0323 22-242 on Superdex 75; 50 mM Tris-HCl pH 8.0, 0.15 M NaCl, 0.5 mM EDTA, 4 °C; conditions: both partners purified

| Binder | stoichiometry N [1] | stoichiometry N [2] |
| --- | --- | --- |
| B1 | 2 |  |
| B2 | 2 | 1 |
